What is called Kd is the free concentration of one partner at which half of the binding sites on the other are occupied at equilibrium, for simple one-to-one binding.

Assay [1] addresses T1, cynomolgus monkey TL1A, soluble, CHO-expressed, residues 72-251 of SEQ ID NO:248 with N-terminal His6-tag (cynomolgus monkey (Macaca fascicularis), UniProt O95150 72-251 (human entry)).
T1 construct: also called MfTL1A; MfTL1A (CHO)
T1 chain: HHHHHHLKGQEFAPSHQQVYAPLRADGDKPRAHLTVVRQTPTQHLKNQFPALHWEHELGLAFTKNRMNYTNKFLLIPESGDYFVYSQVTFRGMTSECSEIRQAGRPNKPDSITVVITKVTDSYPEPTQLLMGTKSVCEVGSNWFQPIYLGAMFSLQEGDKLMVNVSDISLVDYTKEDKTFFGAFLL
Put plainly: SPR 25C, mAb captured. In a few lines:
(§1)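 Biacore T100 SPR with captured mAb and soluble TL1A/Fhm analyte; ka and kd fitted to a 1:1 model assuming monomeric TL1A. KD = kd/ka; t1/2 (min) = ln2/(60·kd).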

The target in assay [2] is T2, rat TL1A, soluble, CHO-expressed, residues 76-252 of SEQ ID NO:258 with N-terminal His6-tag (rat, UniProt Q8K3Y7 76-252).
T2 construct: also called rTL1A; rTL1A (CHO)
T2 sequence: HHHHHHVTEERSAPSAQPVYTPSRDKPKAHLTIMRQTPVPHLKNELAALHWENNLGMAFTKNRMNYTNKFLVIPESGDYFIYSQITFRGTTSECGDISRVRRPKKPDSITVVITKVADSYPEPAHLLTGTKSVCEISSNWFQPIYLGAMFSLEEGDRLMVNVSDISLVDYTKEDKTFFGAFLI
Put plainly: SPR 25C, mAb captured. Summed up: as §1

Assay [3] deals with T3, human TL1A, soluble, CHO-expressed, residues 72-251 of SEQ ID NO:244 with N-terminal His6-tag (human, UniProt O95150 72-251).
T3 construct: also called hTL1A; hTL1A (CHO)
T3 sequence: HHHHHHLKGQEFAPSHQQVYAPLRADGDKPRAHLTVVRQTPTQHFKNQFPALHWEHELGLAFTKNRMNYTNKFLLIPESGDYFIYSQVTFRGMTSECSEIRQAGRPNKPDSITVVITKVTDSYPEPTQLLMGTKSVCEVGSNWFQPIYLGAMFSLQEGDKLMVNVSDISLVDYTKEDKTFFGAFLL
The assay is described as follows: SPR 25C, mAb captured. In a few lines: as §1

Assay [4] concerns the target T4, full length human TL1A expressed on HEK293 cells (human, UniProt O95150 1-251).
T4 sequence: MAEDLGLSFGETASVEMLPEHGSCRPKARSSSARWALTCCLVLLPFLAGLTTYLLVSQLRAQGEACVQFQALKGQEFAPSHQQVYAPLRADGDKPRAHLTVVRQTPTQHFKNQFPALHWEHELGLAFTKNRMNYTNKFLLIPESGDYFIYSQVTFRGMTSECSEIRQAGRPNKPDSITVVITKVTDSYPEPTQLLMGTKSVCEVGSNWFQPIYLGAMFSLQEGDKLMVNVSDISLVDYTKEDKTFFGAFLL
Put plainly: cell-based or functional assay.

Assay [5] addresses T5, full-length Fhm, human TL1A(Q167R), expressed on HEK293 cells (human, UniProt O95150 1-251).
T5 sequence: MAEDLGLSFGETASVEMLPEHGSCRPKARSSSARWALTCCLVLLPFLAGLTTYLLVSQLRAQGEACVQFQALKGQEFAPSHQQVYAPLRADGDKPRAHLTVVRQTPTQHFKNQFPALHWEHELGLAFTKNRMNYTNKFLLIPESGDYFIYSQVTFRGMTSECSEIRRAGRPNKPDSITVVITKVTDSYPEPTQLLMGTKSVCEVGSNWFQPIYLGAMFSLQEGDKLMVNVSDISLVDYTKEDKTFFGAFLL
The assay is described as follows: cell-based or functional assay.

The target in assay [6] is T6, full-length cynomolgus monkey TL1A expressed on HEK293 cells (cynomolgus monkey (Macaca fascicularis), UniProt O95150 1-251 (human entry)).
T6 chain: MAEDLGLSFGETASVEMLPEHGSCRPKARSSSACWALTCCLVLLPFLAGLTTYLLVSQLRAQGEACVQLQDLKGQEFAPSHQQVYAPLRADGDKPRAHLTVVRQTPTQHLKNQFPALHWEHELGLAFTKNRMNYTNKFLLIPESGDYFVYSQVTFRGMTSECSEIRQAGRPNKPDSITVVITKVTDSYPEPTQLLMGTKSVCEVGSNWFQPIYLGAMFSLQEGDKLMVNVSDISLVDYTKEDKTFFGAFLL
The assay is described as follows: cell-based or functional assay.

B1: H4H1745P (antibody, human IgG4 S228P, V domains shown)
VH: EVQLVESGGGLVQPGGSLRLSCAASGFTFSSYAMTWVRQAPGKGLEWVSGVSGRGGSTYYADSVKGRFTISRDNSKNTLYLQMNSLRAEDTAVYYCAYWDISSFDYWGQGTLVTVSS
VL: DIQLTQSPSFLSASVGDRVTITCWASQGISTYLAWYQQKPGKTPKLLIYAASTLQSGVPSRFSGSGSGTDFTLTISSLQPEDFATYYCQQFNSYPLTFGGGTKVEIK
Turning to B1, the Kd in assay [1] was 0.115 nM; in assay [2], 2.7 nM; in assay [3], 0.164 nM. In addition, the values for the t1/2 in assay [1], in assay [2] and in assay [3] were 3.85 h, 0.0667 h and 2.87 h, respectively. The results for the “IC50, reporter + 10,000 TL1A cells” value in assay [4], in assay [5] and in assay [6] were 0.76 nM, 2.12 nM and 4.28 nM, respectively.

B2: H4H1738P (antibody, human IgG4 S228P, V domains shown)
VH: EVQLVESGGALVKPGGSLRLSCAVSGFTFINDWMNWVRQAPGKGLEWVGRIKSTTDGGTTDDAAPVKGRFTISRDDSKNTLYLQMNSLKTEDTAVYYCTRDRNRQRNYFYDGMDVWGQGTTVTVSA
VL: DIVMTQSPVSLPVTPGEPASISCRSSQRLLHNNGNNYLDWYLQKPGQSPQLLIYLGSNRASGVPDRFSGSGSGTDFTLKVSRVEAEDVGVYYCMQALQTPYTFGQGTKLEIK
As to B2, the values for the Kd in assay [1] and in assay [3] were 0.361 nM and 0.608 nM, respectively. The t1/2 was determined as 1.55 h in assay [1] and 1.07 h in assay [3]. The binding result in assay [2] is on record as “no binding (tested: up to 100 nM)”. In addition, the “IC50, reporter + 10,000 TL1A cells” value in assay [4] is 7.47 nM; in assay [5] it was 7.75 nM; in assay [6], 20.2 nM.

B3: H4H1725P (antibody, human IgG4 S228P, V domains shown)
VH: QVQLVQSGAEVKKPGASVKVSCKASGYTFTGYYMHWVRQAPGQGLEWMGWIKPKSGGTNYVQKFQGRVTMTRDTSINTAYMELNNLKSDDTAVYYCATGGSQDASDFWGQGTMVTVSS
VL: DIQMTQSPSSVSASVGGRVTITCRASQDISIWLAWYQQKPGKAPNLLIYAASSLQSGVPSRFSGSGSGTDFTLTISSLQPEDFATYYCQQADSFPLTFGGGTKVEIK
For the molecule B3, the Kd in assay [1] turned out to be 0.346 nM; in assay [2], 0.317 nM; in assay [3], 0.0636 nM. Further, the results for the t1/2 in assay [1], in assay [2] and in assay [3] were 1.07 h, 0.433 h and 3.08 h, respectively. In addition, the “IC50, reporter + 10,000 TL1A cells” value in assay [4] was 0.66 nM; in assay [5] it was 0.94 nM; in assay [6] it was 2.82 nM.

B4: H4H1742P (antibody, human IgG4 S228P, V domains shown)
VH: EVQLVESGGGLVQPGGSLRLSCAASGFTFSNYVMNWVRQAPGKGLEWVSVISGSGGSTHYADSVKGRFTISRDNSKDALYLQMNSLRAEDTAVYYCAKGPLEAYYYYNGMDVWGQGTTVTVSS
VL: DIQLTQSPSFLSASVGDRVTITCWASQAISSYLAWYQHKPGRAPKLLIYSTSTLQSGVPSRFSGSGSGTEFTLTISSLQPEDFATYYCQQLNSYPTFGQGTKLEIK
Regarding B4, the Kd in assay [1] worked out at 0.115 nM; in assay [2], 0.078 nM; in assay [3], 0.0604 nM. Moreover, the t1/2 came to 9.62 h in assay [1], 2.4 h in assay [2] and 12.6 h in assay [3]. The “IC50, reporter + 10,000 TL1A cells” value stood at 6.55 nM in assay [4], 8.39 nM in assay [5] and 18.4 nM in assay [6].

For the origin of these results see patent publication US20140120109A1 (Regeneron, published 2014).
